Assay results from article PMC4943160.
Changes are numbered by the printed parent chain.

Assays:
[1] = target: T1, rCosRWT (Campylobacter jejuni NCTC 11168) (UniProt Q0PBF4); experiment: EMSA
T1 sequence: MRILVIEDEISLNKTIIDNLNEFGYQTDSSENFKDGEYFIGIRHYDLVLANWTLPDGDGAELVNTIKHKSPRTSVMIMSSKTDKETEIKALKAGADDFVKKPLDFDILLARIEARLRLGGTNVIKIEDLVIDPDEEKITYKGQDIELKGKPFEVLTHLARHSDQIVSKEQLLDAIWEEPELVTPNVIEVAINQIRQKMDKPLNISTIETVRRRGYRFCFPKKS

[2] = target: T2, rCosRC218S C218S (Campylobacter jejuni NCTC 11168) (UniProt Q0PBF4); experiment: EMSA
T2 sequence: T1 sequence with C218S

Sequence | binding [1] | binding [2]
GCACAACACCTAAAGCTAAAATAGTATTTTTTTGAAATAATTTCATGGTTTTGCCTTGAAAAATTAAATTAAAAATTGTAATTTTTATTACAAAAATTTTTGGCTAATTATATCTTAATTTTGGTTAATAAAATTATTTTTTAAGCTTTGGAGCTATTGATTCCATTTAG (double strand) [11168 cmeABC promoter] | binds | 
AATCCTTGCTTGCATTTTCGAAAGTTGCCTTAGCCATTAAAGCTTGTCCGTAAGCTGAATCAACACTAGCTTTAAATTTATCTTGTTCTATAATAAATAATGTTTGTCCTTTTTTTACCTTATCTCCAGCTTTAAAAAGTTTATTTACTATTACGCCGCTAACTTGAGGTT (double strand) [cmeA internal fragment] | no binding | 
GCACAACACCTAAAGCTAAAATAGTATTTTTTTGAAATAATTTCATGGTTTTGCCTTGAAAAATTAAATTAAAAATTGTAATATTTATTACAGAAATTTTTGGCTAATTATATCTTAATTTTGGTTAATAAAATTATTTTTTAAGCTTTGGAGCTATTGATTCCATTTAG (double strand) [81-176 cmeABC promoter] |  | binds
